Sequences and labels used below:
B1: SB-1 (antibody, V domains shown)
VH: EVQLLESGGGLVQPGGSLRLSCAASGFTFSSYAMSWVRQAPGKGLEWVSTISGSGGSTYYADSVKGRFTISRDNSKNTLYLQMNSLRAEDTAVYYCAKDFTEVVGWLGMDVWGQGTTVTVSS
VL: EIVMTQSPGTLSLSPGERATLSCRASQSVSSSYLAWYQQKPGQAPRLLIYGASSRATGIPDRFSGSGSGTDFTLTISRLEPEDFAVYYCQLLGSSPRTFGGGTKVEIK
notes: IgG; also called SB-1 (p)
B2: SB-2 (antibody, V domains shown)
VH: QVQLVESGGGVVQPGRSLRLSCAASGFTFSSYGMNWVRQAPGKGLEWVAVIWYDGSNKYYADSVKGRFTISRDNSKNTLYLQMNSLRAEDTAVYYCARDQTAAAAIWGMDVWGQGTTVTVSS
VL: B1 VL with M4L, L91Q, L92S, G93S, S95H, R97F
notes: IgG; also called SB-2 (p)
B3: SB-4 (antibody, V domains shown)
VH: QVQLVQSGAEVKKPGASVKVSCKASGYTFTSYGISWVRQAPGQGLEWMGWISAYNGNTNYAQKLQGRVTMTTDTSTSTAYMELRSLRSDDTAVYYCARSGTHFGTYSYSNWFDPWGQGTLVTVSS
VL: B1 VL with M4L, L91Q, L92Y, G93A, S94D, S95A, R97I
notes: IgG
B4: SB-3 (antibody, V domains shown)
VH: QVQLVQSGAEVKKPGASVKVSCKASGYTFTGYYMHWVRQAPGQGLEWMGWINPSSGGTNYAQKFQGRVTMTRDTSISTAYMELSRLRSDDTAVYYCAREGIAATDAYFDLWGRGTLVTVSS
VL: EIVMTQSPATLSLSPGERATLSCRASQSVSSYLAWYQQKPGQAPRLLIYDASNRATGIPARFSGSGSGTDFTLTISSLEPEDFAVYYCQQRLFHPPTFGGGTKVEIK
notes: IgG
B5: SB-40 (antibody, V domains shown)
VH: QVQLVQSGAEVKKPGASVKVSCKASGYTFTSYYMSWVRQAPGQGLEWMGIINPSGGSTSYAQKFQGRVTMTRDTSTSTVYMELSSLRSEDTAVYYCARDTGEYSYSPHGMDVWGQGTTVTVSS
VL: EIVLTQSPATLSLSPGERATLSCRASQSVSSYLAWYQQKPGQAPRLLIYDSSNRATGIPARFSGSGSGTDFTLTISSLEPEDFAVYYCQQRDEHPPWTFGGGTKVEIK
notes: IgG; also called SB-40 (p)
B6: SB-8-13 Fab (Fab, V domains shown)
VH: QVQLQESGPGLVKPSETLSLTCAVSGYSISAHYYWGWIRQPPGKGLEWIGSIFHSGHTYYNPSLKSRVTISVDTSKNQFSLKLSSVTAADTAVYYCARGGAMTPAGMDVWGQGTTVTVSS
VL: B1 VL with S54N, L91Q, L92V, G93Y, R97Y
notes: Fab by papain digestion
B7: SB-8-14 Fab (Fab, V domains shown)
VH: B6 VH with A31P, F53Y
VL: B1 VL with S54N, L91Q, L92V, G93Y, R97Y
notes: Fab by papain digestion
B8: SB-8-15 Fab (Fab, V domains shown)
VH: B6 VH with F53Y, H54Q
VL: B1 VL with S54N, L91Q, L92V, G93Y, R97Y
notes: Fab by papain digestion
B9: SB-8-16 Fab (Fab, V domains shown)
VH: B6 VH with G99A
VL: B1 VL with S54N, L91Q, L92V, G93Y, R97Y
notes: Fab by papain digestion

Changes are numbered by the printed parent chain.

T9 sequence (O00241 30-148 limits assumed): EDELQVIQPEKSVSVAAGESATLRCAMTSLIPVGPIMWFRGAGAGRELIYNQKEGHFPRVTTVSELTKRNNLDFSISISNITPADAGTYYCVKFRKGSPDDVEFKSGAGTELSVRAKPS

For one experiment, the target named is T1, human SIRPβ1 isoform 1 on cells (human, UniProt O00241 30-398). The experiment in a line: cell-based or functional assay.
T1 sequence (O00241 30-398): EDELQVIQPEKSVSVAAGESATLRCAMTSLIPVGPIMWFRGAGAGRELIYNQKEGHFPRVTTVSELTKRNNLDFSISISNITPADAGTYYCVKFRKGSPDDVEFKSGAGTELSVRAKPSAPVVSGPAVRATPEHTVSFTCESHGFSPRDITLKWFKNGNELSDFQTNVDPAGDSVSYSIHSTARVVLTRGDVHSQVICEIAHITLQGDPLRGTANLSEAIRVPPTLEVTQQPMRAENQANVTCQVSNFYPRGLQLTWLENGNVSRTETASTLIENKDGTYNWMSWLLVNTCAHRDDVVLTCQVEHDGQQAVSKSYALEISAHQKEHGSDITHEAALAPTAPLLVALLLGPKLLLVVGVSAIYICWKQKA
On to B1, for which the “viable Raji-Luc cells with neutrophils and anti-CD20” value was around 50%.
Still for that read-out and setting: the figure for B2 is around 50%.
In the case of B3, the “viable Raji-Luc cells with neutrophils and anti-CD20” value was around 50%.
On the same count and under the same terms, next, B4: around 50%.

The target of a further experiment is T2, human SIRPβ1-Fc isoform 3 (Q5TFQ8) (human, UniProt Q5TFQ8 30-371, limits assumed).
T2 construct: Whole entry named; made in HEK293 cells; also called human SIRPβ1 isoform 3
T2 sequence (Q5TFQ8 30-371 limits assumed, one chain of several): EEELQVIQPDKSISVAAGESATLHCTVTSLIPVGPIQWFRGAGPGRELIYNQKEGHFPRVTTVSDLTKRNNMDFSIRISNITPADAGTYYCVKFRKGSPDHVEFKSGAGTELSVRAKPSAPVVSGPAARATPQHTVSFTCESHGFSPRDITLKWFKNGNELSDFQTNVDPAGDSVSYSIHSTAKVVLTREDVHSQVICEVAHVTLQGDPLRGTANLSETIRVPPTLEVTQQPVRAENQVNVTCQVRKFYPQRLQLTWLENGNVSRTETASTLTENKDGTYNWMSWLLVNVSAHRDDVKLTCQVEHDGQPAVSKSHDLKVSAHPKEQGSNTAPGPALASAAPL
The experiment in a line: ELISA on plate-coated huSirpB-Fc (Q5TFQ8.1), anti-human kappa-HRP, A450.
Description: Among the multiple SIRPβ1 isoforms catalogued, isoform 1 is the full-length version of the receptor primarily expressed in the periphery. Recombinant antigen based on the sequence of SIRPβ1 isoform 1 was used for selecting anti-SIRPβ1 antibodies from yeast library pools. To ascertain if the selected anti-SIRPβ1 antibodies cross-reacted with other isoforms of human SIRPβ1 or with cynomolgus SIRPβ1, recombinant antigens based on human SIRPβ1 isoform 3 sequence and cynomolgus SIRPβ1 isoform 1 sequence were produced by transient transfection in HEK293 cells. Purified, Fc-tagged recombinant proteins were adsorbed onto 96-well plates at 1 μg/mL overnight at 4° C. Plates were subsequently washed with PBS+0.05% Tween-20 and blocked with 1% BSA+PBS for 2 hours at room temperature. Antibodies diluted in blocking buffer at 1 μg/mL were added to wells, serially diluted, and allowed to bind antigen overnight at 4° C. The following day, the primary antibodies were removed and anti-human kappa light chain antibody conjugated to horseradish peroxidase diluted 1:10,000 in blocking buffer were added to wells and incubated for 1 hour at room temperature. Plates were washed with PBS+0.05% Tween-20 and 100 μL of TMB substrate solution was added to wells to generate a colorimetric signal proportional to amount of anti-SIRPβ1 antibody bound to antigen. […]
Consider B5, for which the binding result is given as “no binding (tested: 1 ug/mL)”.

A further experiment deals with T2, human SIRPβ1-Fc isoform 3 (Q5TFQ8). The experiment is described as above. The source holds these as a separate data set.
Description: To ascertain if the selected anti-SIRPβ1 antibodies cross-reacted with other isoforms of human SIRPβ1 or with cynomolgus SIRPβ1, recombinant antigens based on human SIRPβ1 isoform 3 sequence and cynomolgus SIRPβ1 isoform 1 sequence were produced by transient transfection in HEK293 cells. Purified, Fc-tagged recombinant proteins were adsorbed onto 96-well plates at 1 μg/mL overnight at 4° C. Plates were subsequently washed with PBS+0.05% Tween-20 and blocked with 1% BSA+PBS for 2 hours at room temperature. Antibodies diluted in blocking buffer at 1 μg/mL were added to wells, serially diluted, and allowed to bind antigen overnight at 4° C. The following day, the primary antibodies were removed and anti-human kappa light chain antibody conjugated to horseradish peroxidase diluted 1:10,000 in blocking buffer were added to wells and incubated for 1 hour at room temperature. Plates were washed with PBS+0.05% Tween-20 and 100 μL of TMB substrate solution was added to wells to generate a colorimetric signal proportional to amount of anti-SIRPβ1 antibody bound to antigen. Once the reaction reached an appropriate color intensity, 100 μL of Stop solution was added to quench the enzyme.
(§1) Eight anti-SIRPβ1 antibodies (four parental antibodies and four corresponding affinity matured antibodies) were selected for analysis.
In the case of B1, the binding result is “no binding (tested: 1 ug/mL)”.
On the same count and under the same terms, the entry for B2 is “no binding (tested: 1 ug/mL)”.

The target of the next experiment is T3, mouse SIRPβ1 on CHO cells (mouse).
T3 construct: Whole entry
T3 chain: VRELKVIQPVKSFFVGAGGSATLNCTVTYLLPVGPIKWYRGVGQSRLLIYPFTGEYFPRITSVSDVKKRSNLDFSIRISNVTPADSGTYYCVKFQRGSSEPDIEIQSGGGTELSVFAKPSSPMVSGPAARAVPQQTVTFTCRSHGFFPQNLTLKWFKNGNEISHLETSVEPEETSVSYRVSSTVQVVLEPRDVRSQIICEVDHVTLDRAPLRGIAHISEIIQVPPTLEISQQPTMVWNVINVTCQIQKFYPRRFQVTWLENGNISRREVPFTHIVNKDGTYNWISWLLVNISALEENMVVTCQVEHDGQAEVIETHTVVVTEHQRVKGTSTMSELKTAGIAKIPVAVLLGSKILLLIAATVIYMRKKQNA
Description: flow cytometry. (A flow cytometer gives signals particle by particle.)
Regarding B5, the binding result is recorded as “no binding (tested: 1 ug/ml)”.
On to B1, for which the binding result was “no binding (tested: 1 ug/ml)”.
On the same count and under the same terms, the entry for B2 is “no binding (tested: 1 ug/ml)”; for B3 it is “no binding (tested: 1 ug/ml)”; for B4 it is “no binding (tested: 1 ug/ml)”.

A further experiment addresses T4, mouse SIRPα on cells (mouse, UniProt P97797 32-513).
T4 construct: whole, on cells
T4 sequence (looked up): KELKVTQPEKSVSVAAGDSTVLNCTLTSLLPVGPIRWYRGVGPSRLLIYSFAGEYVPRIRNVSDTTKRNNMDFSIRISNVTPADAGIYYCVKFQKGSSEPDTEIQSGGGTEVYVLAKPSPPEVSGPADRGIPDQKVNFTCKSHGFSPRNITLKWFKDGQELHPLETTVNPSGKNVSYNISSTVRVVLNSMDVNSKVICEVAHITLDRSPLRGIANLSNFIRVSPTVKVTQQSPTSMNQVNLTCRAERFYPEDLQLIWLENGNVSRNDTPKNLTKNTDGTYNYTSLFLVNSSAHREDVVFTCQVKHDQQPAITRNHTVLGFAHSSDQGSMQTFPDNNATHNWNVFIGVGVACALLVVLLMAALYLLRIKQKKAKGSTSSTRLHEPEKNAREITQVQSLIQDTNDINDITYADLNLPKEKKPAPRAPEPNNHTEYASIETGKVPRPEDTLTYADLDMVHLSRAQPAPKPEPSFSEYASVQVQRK
The experiment in a line: flow cytometry.
For the molecule B5, the binding result is on record as “no binding (tested: 1 ug/ml)”.
In the case of B1, the binding result was “no binding (tested: 1 ug/ml)”.
Same read-out and setting: the entry for B2 is “no binding (tested: 1 ug/ml)”; for B3 it is “no binding (tested: 1 ug/ml)”.
In the case of B4, the binding result is on record as “no binding (tested: 1 ug/ml)”.

A further experiment has as its target T5, human SIRPα on cells (human, UniProt P78324 31-504).
T5 construct: Whole entry
Description: flow cytometry.
Consider B5, for which the binding result was “no binding (tested: 1 ug/ml)”.
On the same count and under the same terms, the entry for B1 is “no binding (tested: 1 ug/ml)”.
Same read-out and setting: next, B2: “no binding (tested: 1 ug/ml)”; B3: “no binding (tested: 1 ug/ml)”; B4: “no binding (tested: 1 ug/ml)”.

The next experiment deals with T1, human SIRPβ1 isoform 1 on cells. The experiment in a line: cell binding titration; target not given.
The EC50 is the concentration giving half of the maximal effect. High values mean a less potent agent, low ones a more potent agent. The molecule B5 gave a concentration for a half-maximal effect (EC50) of 0.707 nM. This lies in the sub-nanomolar range.
B1 showed a concentration for a half-maximal effect (EC50) of 0.072 nM.
Regarding B2, the concentration giving a half-maximal response (EC50) was determined as 0.235 nM.

Another experiment addresses T3, mouse SIRPβ1 on CHO cells. The experiment in a line: flow cytometry. The source holds these as a separate data set.
Description: (§2) Cells were then washed twice and incubated in 100 ul FACS buffer containing 0.5 μg/ml PE-conjugated secondary antibody for 30 minutes on ice. Cells were washed twice in cold FACS buffer and acquired on a BD FACS Canto. Data analysis and calculation of mean fluorescence intensity (MFI) values or 00 positive cells was performed with FlowJo (TreeStar) software version 10.0.7.
(§3) Given the high sequence similarity between receptors of the SIRPβ family, anti-SIRPβ1 antibodies were also screened for cross-reactivity to human SIRPα.
Turning to B5, the FOB came out at 1 fold over background.
The same measure, in the same setting: the figure for B1 is 1 fold over background; for B2 it is 1 fold over background.

In a further experiment the target is T5, human SIRPα on cells. The experiment in a line: flow cytometry. The source holds these as a separate data set.
Description: as §2, §3
Regarding B5, the FOB stood at 1 fold over background.
Still for that read-out and setting: the figure for B1 is 1 fold over background; for B2 it is 1 fold over background.

In the next experiment the target is T1, human SIRPβ1 isoform 1 on cells. Description: flow cytometry.
Description: as §2, §3
The molecule B5 gave an FOB of 2 fold over background.
Molecule B1 yielded an FOB of 2 fold over background.
The same measure, in the same setting: next, B2: 2 fold over background.

The target in another experiment is T6, human SIRPβ1 domain 1 (D1) Fc fusion (human, UniProt O00241 30-148).
T6 construct: Made in HEK293/T cells with a heterologous signal peptide; also called Human SIRPβ1 D1-Fc; Human SIRPβ1-Fc; not shown: C-terminal human IgG1 Fc
T6 sequence (O00241 30-148 limits assumed): as the sequence (O00241 30-148 limits assumed) above
Description: Octet, Fab monovalent.
Usually Kd stands for the constant that tells how readily two partners part at equilibrium. Low readings indicate higher affinity, high ones lower affinity. Consider B6, for which binding was characterised by a dissociation constant (Kd) of 2.85 nM.
The same measure, in the same setting: the figure for B7 is 3.25 nM; for B8 it is 3.73 nM; for B9 it is 2.32 nM.

For a further experiment, the target named is T7, human SIRPα domain 1 (D1) Fc fusion (human, UniProt P78324 32-149).
T7 construct: also called human SIRPα D1-Fc; Human SIRPα Fc; not shown: C-terminal human IgG1 Fc
Description: Octet, IgG avid.
For the molecule B5, the binding result was “no binding (tested: 100 nM)”.
The same measure, in the same setting: next, B1: “no binding (tested: 100 nM)”; B2: “no binding (tested: 100 nM)”.

A further experiment addresses T8, mouse SIRPα D1-Fc (mouse, UniProt P97797 32-150, limits assumed).
T8 construct: domain: D1
T8 sequence (looked up): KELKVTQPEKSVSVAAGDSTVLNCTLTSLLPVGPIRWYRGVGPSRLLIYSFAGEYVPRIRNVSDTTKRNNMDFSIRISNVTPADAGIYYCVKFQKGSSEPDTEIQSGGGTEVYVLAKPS
The experiment in a line: Octet.
For B5, the binding result is given as “no binding (tested: 100 nM)”.
On the same count and under the same terms, next, B1: “no binding (tested: 100 nM)”; B2: “no binding (tested: 100 nM)”.
Still for that read-out and setting: next, B3: “no binding (tested: 100 nM)”; B4: “no binding (tested: 100 nM)”.

The target of another experiment is T7, human SIRPα domain 1 (D1) Fc fusion. The experiment in a line: Octet. In general terms: BLI is a label-free optical method that tracks binding on a fibre tip over time.
In the case of B3, the binding result is “no binding (tested: 100 nM)”.
B4: the binding result is on record as “no binding (tested: 100 nM)”.

For the next experiment, the target named is T6, human SIRPβ1 domain 1 (D1) Fc fusion. Description: Octet, IgG avid.
Description: Briefly, Octet affinity measurements were performed by loading IgGs on-line onto AHQ sensors. Sensors were equilibrated off-line in assay buffer for 30 min and then monitored on-line for 60 seconds for baseline establishment. For avid binding measurement, sensors with loaded IgGs were exposed to 100 nM antigen (human SIRPα domain 1 (D1) Fc fusion or SIRPβ1 domain 1 (D1) Fc fusion) for 3 min, and then transferred to assay buffer for 3 min for off-rate measurement. Additional avid binding was determined by loading biotinylated SIRPβ1 monomer on SA sensors and exposing to 100 nM IgG in solution. Monovalent binding measurements were obtained by loading human SIRPα- or SIRPβ1-Fc fusion antigens onto AHQ sensor, followed by exposure to 100 nM anti-SIRPβ1 antibody Fab. Additional monovalent measurements were made by loading biotinylated human SIRPα or SIRPβ1 monomer to SA sensor followed by exposure to 100 nM Fab in solution. Kinetics data were fit using a 1:1 binding model in the data analysis software provided by ForteBio (ForteBio Data Analysis Software 7.0).
Molecule B5 yielded a Kd of 9.64 nM.
Same read-out and setting: next, B1: 0.966 nM; B2: 1.97 nM.

In the next experiment the target is T3, mouse SIRPβ1 on CHO cells. The experiment in a line: flow cytometry. The source holds these as a separate data set.
As for B5, the FOB turned out to be 1.1 fold over background.
The molecule B1 displayed an FOB of 1.1 fold over background.
Still for that read-out and setting: the figure for B2 is 1.3 fold over background; for B3 it is 1.2 fold over background.
In the case of B4, the FOB amounted to 1.3 fold over background.

For the next experiment, the target named is T4, mouse SIRPα on cells. The experiment in a line: flow cytometry. This is another data set of the same source.
The molecule B5 gave an FOB of 1.2 fold over background.
On to B1, for which the FOB was found to be 1.4 fold over background.
For B2, the FOB turned out to be 1.1 fold over background.
Still for that read-out and setting: next, B3: 0.9 fold over background.
With B4, the FOB came out at 1.3 fold over background.

The target of another experiment is T5, human SIRPα on cells. The experiment in a line: flow cytometry. This is another data set of the same source.
Molecule B5 returned an FOB of 2.5 fold over background.
B1 had an FOB of 2.3 fold over background.
The same measure, in the same setting: next, B2: 3 fold over background; B3: 2 fold over background; B4: 1.8 fold over background.

The target in the next experiment is T1, human SIRPβ1 isoform 1 on cells. Description: flow cytometry. This is another data set of the same source.
For B5, the FOB was 7 fold over background.
B1 yielded an FOB of 5.7 fold over background.
The same measure, in the same setting: the figure for B2 is 8.7 fold over background; for B3 it is 1.7 fold over background; for B4 it is 2.5 fold over background.

A further experiment addresses T9, Human SIRPβ HIS (human, UniProt O00241 30-148, limits assumed).
T9 construct: detected with streptavidin, so biotinylated; also called recombinant human SIRPβ1; human SIRPβ1 monomer
The experiment in a line: MSD-SET, Fab monovalent.
B6 displayed a Kd of 0.063 nM.
Still for that read-out and setting: the figure for B7 is 0.053 nM; for B8 it is 0.048 nM.
The same measure, in the same setting: the figure for B9 is 0.055 nM.

The target in the next experiment is T10, Soluble, human SIRPβ1-Fc isoform 1 (O00241) (human, UniProt O00241 30-371, limits assumed).
T10 construct: Whole entry named; also called human SIRPβ1 isoform 1
T10 sequence (O00241 30-371 limits assumed, one chain of several): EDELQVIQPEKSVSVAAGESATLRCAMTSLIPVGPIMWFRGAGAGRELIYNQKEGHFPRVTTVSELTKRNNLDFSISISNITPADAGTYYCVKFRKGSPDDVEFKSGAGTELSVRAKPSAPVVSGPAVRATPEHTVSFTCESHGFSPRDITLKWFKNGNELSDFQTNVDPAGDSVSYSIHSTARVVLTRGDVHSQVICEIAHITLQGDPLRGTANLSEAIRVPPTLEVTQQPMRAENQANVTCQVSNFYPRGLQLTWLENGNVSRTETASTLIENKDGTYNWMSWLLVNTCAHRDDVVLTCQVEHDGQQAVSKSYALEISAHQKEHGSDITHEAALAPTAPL
The experiment in a line: ELISA, antigen coated. On the technique in general: An ELISA detects its analyte on a solid surface through an enzyme-linked reagent.
Description: Recombinant antigen based on the sequence of SIRPβ1 isoform 1 was used for selecting anti-SIRPβ1 antibodies from yeast library pools. To ascertain if the selected anti-SIRPβ1 antibodies cross-reacted with other isoforms of human SIRPβ1 or with cynomolgus SIRPβ1, recombinant antigens based on human SIRPβ1 isoform 3 sequence and cynomolgus SIRPβ1 isoform 1 sequence were produced by transient transfection in HEK293 cells. Purified, Fc-tagged recombinant proteins were adsorbed onto 96-well plates at 1 μg/mL overnight at 4° C. Plates were subsequently washed with PBS+0.05% Tween-20 and blocked with 1% BSA+PBS for 2 hours at room temperature. Antibodies diluted in blocking buffer at 1 μg/mL were added to wells, serially diluted, and allowed to bind antigen overnight at 4° C. The following day, the primary antibodies were removed and anti-human kappa light chain antibody conjugated to horseradish peroxidase diluted 1:10,000 in blocking buffer were added to wells and incubated for 1 hour at room temperature. Plates were washed with PBS+0.05% Tween-20 and 100 μL of TMB substrate solution was added to wells to generate a colorimetric signal proportional to amount of anti-SIRPβ1 antibody bound to antigen. Once the reaction reached an appropriate color intensity, 100 μL of Stop solution was added to quench the enzyme.
as §1
As for B5, the EC50 was 0.04 nM.
On the same count and under the same terms, next, B1: 0.034 nM; B2: 0.032 nM.
